Drawing on patent US20200297837A1, this text covers MFI for 5 molecules.

Read-outs that look alike come from different tables or passages of the source.

The target of experiment [1] is T1, HLA-E*01033 on the HLA-E*01033-transfected derivative of the K562 cell line (human), P13747.
Experiment [2] concerns the target T1, HLA-E*01033 on the …. Kind of experiment: HLA-E stabilization assay on K562/HLA-E cells, overnight 26 C, anti-HLA-E mAb staining, flow cytometry (without peptide: 1400). In general terms: Flow cytometry measures light scatter and fluorescence of single cells or particles in a stream.

B1: HIV-1 Pol derived peptide … (SEQ ID NO: 16) (peptide)
peptide: PEIVIYDYM
modifications: not checked
In experiment [1], B1 registered an MFI of 7320 MFI.

B2: HIV-1 Pol derived peptide … (SEQ ID NO: 17) (peptide)
peptide: RIRTWKSLV
modifications: not checked
On to B2, for which, in experiment [2], the MFI is 6580 MFI.

B3: HIV-1 Gag derived peptide … (SEQ ID NO: 3) (peptide)
peptide: TALSEGATP
modifications: not checked
As to B3, in experiment [2], the MFI is 8530 MFI.

B4: MBt derived peptide … (SEQ ID NO: 15) (peptide)
peptide: VMATRRNVL
modifications: not checked
B4: the MFI in experiment [1] worked out at 7520 MFI.

B5: HIV-1 Gag derived peptide … (SEQ ID NO: 1) (peptide)
peptide: RMYSPVSIL
modifications: not checked
In the case of B5, the MFI in experiment [2] amounted to 8240 MFI.
